Test results published in patent US20190064166.

Tested on: PAPPA2 (pappalysin-2), full-length urinary protein from vAKI patients

Substance: Cathepsin D
- digestion of urinary PAPPA2, loss of PAPPA2 immunoreactivity on immunoblot: the addition of cathepsin D to vAKI samples digested PAPPA2
